According to US20240132578A1:

Legend:
Test in all cases: cell-based or functional assay
HIV-1 APV6 Env (HIV-1) = biological target: HIV-1 APV6 Env (HIV-1)
[1] = biological target: HIV-1 CMU02 envelope protein (Env) on pseudovirus (HIV-1)
[2] = biological target: HIV-1 Env of isolate MGRM-AG-013 (pseudovirus) (HIV-1)
[3] = biological target: HIV-1 JR-CSF Env N411A (HIV-1 (isolate JR-CSF)) (UniProt P20871)
[4] = biological target: HIV-1 MGRM-D-018 Env (HIV-1)
[5] = biological target: HIV-1 envelope glycoprotein (Env) of isolate MGRM-Chronic-B-023, on pseudovirus (HIV-1)
[6] = biological target: HIV-1 envelope glycoprotein (Env) of isolate TRJO4551.58, on pseudovirus (HIV-1)
[7] = biological target: HIV-1 APV-17 envelope (Env) on pseudovirus (HIV-1)
[8] = biological target: HIV-1 CMU02 Env (pseudovirus) (HIV-1)
[9] = biological target: HIV-1 Env of isolate 92UG046 (clade D pseudovirus) (HIV-1)
[10] = biological target: HIV-1 Env of isolate 94UG103 (clade A pseudovirus) (HIV-1)
[11] = biological target: HIV-1 Env of isolate MGRM-A-009 (clade A pseudovirus) (HIV-1)
[12] = biological target: HIV-1 Env of isolate MGRM-D-008 (clade D pseudovirus) (HIV-1)
[13] = biological target: HIV-1 Env of isolate MGRM-D-019 (clade D pseudovirus) (HIV-1)
[14] = biological target: HIV-1 Env of pseudovirus MGRM-F1-022 (clade F) (HIV-1)
[15] = biological target: HIV-1 Env of pseudovirus MGRM-G-016 (HIV-1)
[16] = biological target: HIV-1 MGRM-AG-001 Env (pseudovirus) (HIV-1)
[17] = biological target: HIV-1 MGRM-AG-012 Env (pseudovirus) (HIV-1)
[18] = biological target: HIV-1 MGRM-G-006 Env (pseudovirus) (HIV-1)
[19] = biological target: HIV-1 envelope glycoprotein (Env) of isolate MGRM-C-005 (HIV-1)
[20] = biological target: HIV-1 envelope glycoprotein (Env) of isolate MGRM-C-017 (HIV-1)
[21] = biological target: HIV-1 Env of isolate 92RW008 (pseudovirus) (HIV-1)
[22] = biological target: HIV-1 Env of isolate 92UG005 (pseudovirus) (HIV-1)
[23] = biological target: HIV-1 Env of isolate 92WR009 (pseudovirus) (HIV-1)
[24] = biological target: HIV-1 Env of isolate 94KE105 (subtype AC) (HIV-1)
[25] = biological target: HIV-1 Env of isolate 98CN006 (pseudovirus) (HIV-1)
[26] = biological target: HIV-1 Env of isolate MGRM-AE-003 (subtype AE) (HIV-1)
[27] = biological target: HIV-1 Env of isolate MGRM-AE-006 (subtype AE) (HIV-1)
[28] = biological target: HIV-1 Env of isolate MGRM-AG-009 (subtype AG) (HIV-1)
[29] = biological target: HIV-1 Env of isolate MGRM-AG-012 (subtype AG) (HIV-1)
[30] = biological target: HIV-1 Env of isolate MGRM-AG-013 (subtype AG) (HIV-1)
[31] = biological target: HIV-1 Env of isolate MGRM-Chronic-B-002 (HIV-1)
[32] = biological target: HIV-1 Env of isolate MGRM-Chronic-B-004 (HIV-1)
[33] = biological target: HIV-1 Env of isolate MGRM-Chronic-B-008 (HIV-1)
[34] = biological target: HIV-1 Env of isolate MGRM-D-005 (pseudovirus) (HIV-1)
[35] = biological target: HIV-1 Env of isolate MGRM-D-028 (HIV-1)
[36] = biological target: HIV-1 Env of isolate 92UG046 (HIV-1)
[37] = biological target: HIV-1 Env of isolate MG RM-A-007 (pseudovirus) (HIV-1)
[38] = biological target: HIV-1 Env of isolate MGRM-C-027 (subtype C), on pseudovirus (HIV-1)
[39] = biological target: HIV-1 Env of pseudovirus isolate MGRM-Chronic-B-004 (clade B) (HIV-1)
[40] = biological target: aMLV envelope (negative control pseudovirus) (aMLV)

Sequence of 4970_K22 (PGT-144) (antibody) (VH): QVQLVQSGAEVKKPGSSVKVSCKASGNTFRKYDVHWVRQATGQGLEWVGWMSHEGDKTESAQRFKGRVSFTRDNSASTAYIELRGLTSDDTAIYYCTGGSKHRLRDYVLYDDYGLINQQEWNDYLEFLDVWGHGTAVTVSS
Sequence of 4970_K22 (PGT-144) (antibody) (VL): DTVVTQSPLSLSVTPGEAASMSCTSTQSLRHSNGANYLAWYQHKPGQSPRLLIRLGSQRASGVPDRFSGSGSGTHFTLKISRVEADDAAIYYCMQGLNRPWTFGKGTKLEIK

| Substance | IC50, pseudovirus neutralization (HIV-1 APV6 Env (HIV-1)) | IC50 (ug/mL), pseudovirus neutralization [1] | IC50 (µg/mL), pseudovirus neutralization [2] | Fold IC50 increase relative to wild-type (pseudovirus neutralization) [3] | IC50, pseudovirus neutralization [4] | IC50, pseudovirus neutralization [5] | IC50, pseudovirus neutralization [6] | IC50 (µg/mL), pseudovirus neutralization [21] | IC50 (µg/mL), pseudovirus neutralization [22] | IC50 (µg/mL), pseudovirus neutralization [23] | IC50, pseudovirus neutralization [24] | IC50 (µg/mL), pseudovirus neutralization [25] | IC50, pseudovirus neutralization [26] | IC50, pseudovirus neutralization [27] | IC50, pseudovirus neutralization [28] | IC50, pseudovirus neutralization [29] | IC50, pseudovirus neutralization [30] | IC50 (µg/mL), pseudovirus neutralization [31] | IC50 (µg/mL), pseudovirus neutralization [32] | IC50 (µg/mL), pseudovirus neutralization [33] | other results |
| --- | --- | --- | --- | --- | --- | --- | --- | --- | --- | --- | --- | --- | --- | --- | --- | --- | --- | --- | --- | --- | --- |
| 4858_P08 (PGT-123) (antibody) | 0.0327 µg/mL | > 10 µg/mL | 3.37 µg/mL | 0.5 fold | 0.0047 µg/mL | 0.055 µg/mL | 16.9 µg/mL |  |  |  |  |  |  |  |  |  |  |  |  |  |  |
| 1496_C09 (PG9) (TCN-109) (antibody) | 0.214 µg/mL |  | 0.259 µg/mL |  | 2.04 µg/mL |  |  |  |  |  |  |  |  |  |  |  |  |  |  |  | neutralization IC50 [7]: 26.4 µg/mL; IC50 (µg/ml), pseudovirus neutralization [8]: 7.69 µg/mL; IC50, pseudovirus neutralization [9]: 0.64 µg/mL; IC50 (µg/ml), pseudovirus neutralization [10]: 0.24 µg/mL; IC50 (µg/ml), pseudovirus neutralization [11]: 0.03 µg/mL; IC50, pseudovirus neutralization [12]: 6.86 µg/mL; IC50, pseudovirus neutralization [13]: 0.03 µg/mL; IC50 [14]: 0.06 µg/mL; IC50 (µg/ml), pseudovirus neutralization [15]: 0.4 µg/mL; IC50 (µg/ml), pseudovirus neutralization [16]: 8.83 µg/mL; IC50 (µg/ml), pseudovirus neutralization [17]: 1.37 µg/mL; IC50 (µg/ml), pseudovirus neutralization [18]: 0.51 µg/mL; IC50 (µg/ml), pseudovirus neutralization [19]: 2.98 µg/mL; IC50 (µg/ml), pseudovirus neutralization [20]: 1.52 µg/mL |
| 5114_A19 (PGT-128) (antibody) |  |  |  | 0.7 fold |  |  |  | 0.003 µg/mL | 0.018 µg/mL | 0.812 µg/mL | 0.007 µg/mL | 0.015 µg/mL | 0.18 µg/mL | 0.044 µg/mL | 0.021 µg/mL | > 50 µg/mL | 0.004 µg/mL | 0.036 µg/mL | 0.009 µg/mL | 0.143 µg/mL | IC50 (µg/mL), pseudovirus neutralization [34]: 0.051 µg/mL; IC50 (µg/mL), pseudovirus neutralization [35]: > 50 µg/mL |
| 5329_C19 (PGT-136) (antibody) |  | > 10 µg/mL |  |  |  |  |  | > 50 µg/mL | > 50 µg/mL | > 50 µg/mL | > 50 µg/mL | 0.406 µg/mL | > 50 µg/mL | > 50 µg/mL | > 50 µg/mL | > 50 µg/mL | > 50 µg/mL | > 50 µg/mL | > 50 µg/mL | > 50 µg/mL | IC50 (µg/mL), pseudovirus neutralization [34]: > 50 µg/mL; IC50 (µg/mL), pseudovirus neutralization [35]: > 50 µg/mL |
| 4838_L06 (PGT-121) (antibody) |  | > 10 µg/mL |  |  |  | 0.005 µg/mL | 7.09 µg/mL |  |  |  |  |  |  |  |  |  |  |  |  |  |  |
| 4970_K22 (PGT-144) (antibody) |  |  |  |  |  |  |  |  |  |  |  |  |  |  |  |  |  |  |  |  | IC50 (µg/mL), pseudovirus neutralization [36]: > 50 µg/mL; IC50 (µg/mL), single-round pseudovirus neutralization [37]: > 50 µg/mL; IC50, single-round pseudovirus neutralization [38]: > 50 µg/mL; IC50, pseudovirus neutralization [39]: 9.41 µg/mL; IC50 (µg/mL), pseudovirus neutralization [40]: > 50 µg/mL |
| 5141_B17 (PGT-126) (antibody) | 0.0249 µg/mL | > 10 µg/mL | 0.008 µg/mL | 0.7 fold | 0.0093 µg/mL | > 50 µg/mL | 0.025 µg/mL |  |  |  |  |  |  |  |  |  |  |  |  |  |  |
| 5343_B08 (PGT-135) (antibody) |  | > 10 µg/mL |  | 0.2 fold |  |  |  | 1.42 µg/mL | > 50 µg/mL | > 50 µg/mL | 0.063 µg/mL | 0.429 µg/mL | > 50 µg/mL | > 50 µg/mL | > 50 µg/mL | 41.9 µg/mL | > 50 µg/mL | > 50 µg/mL | > 50 µg/mL | > 50 µg/mL | IC50 (µg/mL), pseudovirus neutralization [34]: > 50 µg/mL; IC50 (µg/mL), pseudovirus neutralization [35]: > 50 µg/mL |
| 5145_B14 (PGT-127) (antibody) |  |  | 0.018 µg/mL | 0.8 fold |  | > 50 µg/mL | 0.063 µg/mL |  |  |  |  |  |  |  |  |  |  |  |  |  |  |
| 4877_D15 (PGT-122) (antibody) | 0.0851 µg/mL | > 10 µg/mL | 0.521 µg/mL |  | 0.0115 µg/mL | 0.01 µg/mL | > 50 µg/mL |  |  |  |  |  |  |  |  |  |  |  |  |  |  |
| PGV04 (antibody) |  |  | 0.03 µg/mL |  |  |  |  |  |  |  |  |  |  |  |  |  |  |  |  |  | IC50 (µg/mL), pseudovirus neutralization [40]: > 50 µg/mL |
| 5147_N06 (PGT-130) (antibody) | > 10 µg/mL | > 10 µg/mL |  | 0.6 fold | 0.0378 µg/mL |  |  | 0.039 µg/mL | 0.959 µg/mL | 1.27 µg/mL | 0.004 µg/mL | 0.258 µg/mL | 0.337 µg/mL | 0.009 µg/mL | 9.46 µg/mL | > 50 µg/mL | 0.01 µg/mL | > 50 µg/mL | 0.01 µg/mL | 5.18 µg/mL | IC50 (µg/mL), pseudovirus neutralization [34]: > 50 µg/mL; IC50 (µg/mL), pseudovirus neutralization [35]: 0.825 µg/mL |
| 5136_H01 (PGT-131) (antibody) |  |  |  | 0.6 fold |  |  |  | 1.01 µg/mL | 0.854 µg/mL | 3.12 µg/mL | 0.013 µg/mL | 35.3 µg/mL | 1.41 µg/mL | 0.026 µg/mL | > 50 µg/mL | > 50 µg/mL | 0.03 µg/mL | > 50 µg/mL | 0.04 µg/mL | > 50 µg/mL | IC50 (µg/mL), pseudovirus neutralization [34]: > 50 µg/mL; IC50 (µg/mL), pseudovirus neutralization [35]: > 50 µg/mL |
| 5345_I01 (PGT-137) (antibody) |  |  |  |  |  |  |  | 0.148 µg/mL | > 50 µg/mL | > 50 µg/mL | 18.5 µg/mL | 1.22 µg/mL | > 50 µg/mL | > 50 µg/mL | > 50 µg/mL | > 50 µg/mL | > 50 µg/mL | > 50 µg/mL | > 50 µg/mL | > 50 µg/mL | IC50 (µg/mL), pseudovirus neutralization [34]: > 50 µg/mL; IC50 (µg/mL), pseudovirus neutralization [35]: > 50 µg/mL |
| 5123_A06 (PGT-125) (antibody) | 0.0359 µg/mL | > 10 µg/mL | 0.004 µg/mL | 0.5 fold | 0.0382 µg/mL | > 50 µg/mL | 0.019 µg/mL |  |  |  |  |  |  |  |  |  |  |  |  |  | Neutralization by PGT-125, IC50 [8]: > 10 µg/mL; Neutralization by PGT-125, IC80 [8]: > 10 µg/mL; Neutralization by PGT-125, IC90 [8]: > 10 µg/mL; Neutralization by PGT-125, IC95 [8]: > 10 µg/mL |
